Assay results from patent US20220289816A1, “IMMUNOTHERAPY WITH B*07 RESTRICTED PEPTIDES AND COMBINATION OF PEPTIDES AGAINST CANCERS AND RELATED METHODS” (Immatics Biotechnologies GmbH, priority 2018, published 2022).

Biological target: HLA-B*07 (Homo sapiens, UniProt P01889)
Test: MHC binding assay (UV-ligand exchange, ELISA of stabilized MHC complexes)
Conditions: peptide exchange yield on HLA-B*07, UV-ligand exchange
Source text: Candidate peptides for T cell based therapies according to the present invention were further tested for their MHC binding capacity (affinity). The individual peptide-MHC complexes were produced by UV-ligand exchange, where a UV-sensitive peptide is cleaved upon UV-irradiation and exchanged with the peptide of interest as analyzed. Only peptide candidates that can effectively bind and stabilize the peptide-receptive MHC molecules prevent dissociation of the MHC complexes. To determine the yield of the exchange reaction, an ELISA was performed based on the detection of the light chain (β2m) of stabilized MHC complexes. The assay was performed as generally described in Rodenko et al. (Rodenko et al., 2006)
96 well MAXISorp plates (NUNC) were coated over night with 2 ug/ml streptavidin in PBS at room temperature, washed 4× and blocked for 1 h at 37° C. in 2% BSA containing blocking buffer. […] Peptide-MHC monomers of the UV-exchange reaction were diluted 100-fold in blocking buffer. Samples were incubated for 1 h at 37° C., washed four times, incubated with 2 ug/ml HRP conjugated anti-[…] for 1 h at 37° C., washed again and detected with TMB solution that is stopped with […]. Absorption was measured at 450 nm. Candidate peptides that show a high exchange yield (preferably higher than 50%, most preferred higher than 75%) are generally preferred for a generation and production of antibodies or fragments thereof, and/or T cell receptors or fragments thereof, as they show sufficient avidity to the MHC molecules and prevent dissociation of the MHC complexes.

Substance | Peptide exchange
74 (VPVSHPVL; listed as Homo sapiens) [compound 74] | ++++ (>75% = ++++)
67 (VPVSRPVL; listed as Homo sapiens) [compound 67] | ++++ (>75% = ++++)
478 (APKFISPASQL; listed as Homo sapiens) [compound 478] | ++++ (>75% = ++++)
471 (LPLLAGTLLL; listed as Homo sapiens) [compound 471] | ++ (>20% = ++)
355 (APKTSFIAA; listed as Homo sapiens) [compound 355] | ++++ (>75% = ++++)
275 (IPAPQGAVL; listed as Homo sapiens) [compound 275] | +++ (>50 = +++)
256 (SPVPSHWMVAL; listed as Homo sapiens) [compound 256] | ++++ (>75% = ++++)
298 (RVLLRWISL; listed as Homo sapiens) [compound 298] | +++ (>50 = +++)
29 (APLRVHITSL; listed as Homo sapiens) [compound 29] | ++++ (>75% = ++++)
341 (LPRSPPLKVL; listed as Homo sapiens) [compound 341] | ++++ (>75% = ++++)
41 (MPAGGGPRSL; listed as Homo sapiens) [compound 41] | ++++ (>75% = ++++)
466 (SPMEAILVSRL; listed as Homo sapiens) [compound 466] | ++++ (>75% = ++++)
94 (LPMSKRQEY; listed as Homo sapiens) [compound 94] | +++ (>50 = +++)
281 (NPRSPPATM; listed as Homo sapiens) [compound 281] | ++++ (>75% = ++++)
153 (QPVHSLCSA; listed as Homo sapiens) [compound 153] | ++++ (>75% = ++++)
360 (SPASRSISLL; listed as Homo sapiens) [compound 360] | ++++ (>75% = ++++)
353 (KPRATWTL; listed as Homo sapiens) [compound 353] | +++ (>50 = +++)
475 (IPLEIQKL; listed as Homo sapiens) [compound 475] | + (>10% = +)
363 (KPRTPFTTA; listed as Homo sapiens) [compound 363] | ++++ (>75% = ++++)
109 (LPRALMRST; listed as Homo sapiens) [compound 109] | +++ (>50 = +++)
118 (NPERHKPSF; listed as Homo sapiens) [compound 118] | +++ (>50 = +++)
154 (RPPPSRRAVL; listed as Homo sapiens) [compound 154] | +++ (>50 = +++)
344 (VPYPSPTCV; listed as Homo sapiens) [compound 344] | ++++ (>75% = ++++)

Substance | Peptide exchange
336 (YPLQGPGLLSV; listed as Homo sapiens) [compound 336] | +++ (>50 = +++)
467 (VPRNQDWLGVSRQL; listed as Homo sapiens) [compound 467] | ++++ (>75% = ++++)
70 (VPAQRLGLL; listed as Homo sapiens) [compound 70] | ++++ (>75% = ++++)
219 (VPHTGRYTCL; listed as Homo sapiens) [compound 219] | +++ (>50 = +++)
378 (SPRQPRLDF; listed as Homo sapiens) [compound 378] | ++++ (>75% = ++++)
162 (IPIRVDQNGAF; listed as Homo sapiens) [compound 162] | +++ (>50 = +++)
345 (SAAPPGASL; listed as Homo sapiens) [compound 345] | +++ (>50 = +++)
243 (MARTGGMVVI; listed as Homo sapiens) [compound 243] | ++ (>20% = ++)
324 (LPAPLRISL; listed as Homo sapiens) [compound 324] | ++++ (>75% = ++++)
222 (MLKTTLTAF; listed as Homo sapiens) [compound 222] | + (>10% = +)
318 (TPISNTGVL; listed as Homo sapiens) [compound 318] | ++++ (>75% = ++++)
283 (RPQPGWRESL; listed as Homo sapiens) [compound 283] | ++++ (>75% = ++++)
312 (SPSLQSSRESL; listed as Homo sapiens) [compound 312] | +++ (>50 = +++)
282 (AVRLPTPNL; listed as Homo sapiens) [compound 282] | ++++ (>75% = ++++)
258 (SVIGPNSRL; listed as Homo sapiens) [compound 258] | ++ (>20% = ++)
36 (RPFSREMDL; listed as Homo sapiens) [compound 36] | +++ (>50 = +++)
237 (LPRAGGAF; listed as Homo sapiens) [compound 237] | ++++ (>75% = ++++)
232 (TAYPSLRLL; listed as Homo sapiens) [compound 232] | +++ (>50 = +++)
352 (LPAFSKIGGIL; listed as Homo sapiens) [compound 352] | ++++ (>75% = ++++)
261 (SPSTSRTPL; listed as Homo sapiens) [compound 261] | +++ (>50 = +++)
113 (KPHLDRRGAVI; listed as Homo sapiens) [compound 113] | ++++ (>75% = ++++)
337 (IPTSRVITL; listed as Homo sapiens) [compound 337] | ++++ (>75% = ++++)
139 (LVILQHQAM; listed as Homo sapiens) [compound 139] | +++ (>50 = +++)

The next lines start with the values.

Peptide exchange | Substance
++ (>20% = ++) | 188 (HAAASFETL; listed as Homo sapiens) [compound 188]
++++ (>75% = ++++) | 454 (SPDPAHLESL; listed as Homo sapiens) [compound 454]
++++ (>75% = ++++) | 482 (QPSLKKIIL; listed as Homo sapiens) [compound 482]
++++ (>75% = ++++) | 287 (SPIPRPLFL; listed as Homo sapiens) [compound 287]
+++ (>50 = +++) | 274 (KPIRTGISPLAL; listed as Homo sapiens) [compound 274]
+++ (>50 = +++) | 198 (LPSPAHAFRAL; listed as Homo sapiens) [compound 198]
+++ (>50 = +++) | 247 (SPVGVGQRL; listed as Homo sapiens) [compound 247]
+++ (>50 = +++) | 381 (APRPRLLLL; listed as Homo sapiens) [compound 381]
+++ (>50 = +++) | 106 (APFHIDRLF; listed as Homo sapiens) [compound 106]
+++ (>50 = +++) | 343 (RPRPPKVLGL; listed as Homo sapiens) [compound 343]
++++ (>75% = ++++) | 458 (VPIPTHYFVVL; listed as Homo sapiens) [compound 458]
+++ (>50 = +++) | 307 (RPHQKGWLSI; listed as Homo sapiens) [compound 307]
++++ (>75% = ++++) | 451 (VPILPLNHAL; listed as Homo sapiens) [compound 451]
+++ (>50 = +++) | 144 (RPVQGIPTY; listed as Homo sapiens) [compound 144]
++ (>20% = ++) | 83 (AVSSHHNVI; listed as Homo sapiens) [compound 83]
+++ (>50 = +++) | 182 (RPLPVSPARAL; listed as Homo sapiens) [compound 182]
++ (>20% = ++) | 210 (IPENRVVSY; listed as Homo sapiens) [compound 210]
++++ (>75% = ++++) | 319 (RPLDTFRVL; listed as Homo sapiens) [compound 319]
+++ (>50 = +++) | 321 (QPQQPGFFL; listed as Homo sapiens) [compound 321]
+++ (>50 = +++) | 35 (APLPPPRAL; listed as Homo sapiens) [compound 35]
+++ (>50 = +++) | 351 (SPYADIIPSA; listed as Homo sapiens) [compound 351]
+++ (>50 = +++) | 464 (VPFVPRTSV; listed as Homo sapiens) [compound 464]
++++ (>75% = ++++) | 284 (RPSAPRGPP; listed as Homo sapiens) [compound 284]
++++ (>75% = ++++) | 245 (GPVPSPLAL; listed as Homo sapiens) [compound 245]
++ (>20% = ++) | 133 (LPELPTTLTF; listed as Homo sapiens) [compound 133]
++++ (>75% = ++++) | 460 (APLMPLGKTL; listed as Homo sapiens) [compound 460]
++ (>20% = ++) | 184 (KIIASGNHL; listed as Homo sapiens) [compound 184]
++++ (>75% = ++++) | 117 (IPHQRSSL; listed as Homo sapiens) [compound 117]
